Laboratory results published in the DeepSol protein solubility set.

Assay: soluble on expression in E. coli; label from the status in PepcDB or PDB records

Sequence | soluble on expression in E. coli
MGSDKIHHHHHHMQTFPAYSSMQLSLSPTQCQPLKIIALGDSLVYGFGDPDKGGWVEQLRRWWMLPDSSGHVLYNLGVRGDRTQQVAQRLEVEFRHRGELRNRVPDLIILSVGVNDSARLTRLNGRNCTDFALFESEIASLLDQAQQLCPVLFVGMVPVDEAKMPFLNCFYFNHADQYRYKEATRIACNQRQIPYLDIFDQWMARGDAWRNKRLTEDGLHPNTLGYQSLLEDVIHWEHLAGYHTRPDYQLK | not soluble
MHNSTGRYVLGMEVMTPTGMNLDIATSVANADLARFDQVVGEDGIERFTFAKIEYTKESDLFEKTCELTANLLDSLLTQLPRS | not soluble
MTPFMTEDFLLDTEFARRLYHDYAKDQPIFDYHCHLPPQQIAEDYRFKNLYDIWLKGDHYKWRAMRTNGVAERLCTGDASDREKFDAWAATVPHTIGNPLYHWTHLELRRPFGITGKLLSPSTADEIWNECNELLAQDNFSARGIMQQMNVKMVGTTDDPIDSLEHHAEIAKDGSFTIKVLPSWRPDKAFNIEQATFNDYMAKLGEVSDTDIRRFADLQTALTKRLDHFAAHGCKVSDHALDVVMFAEANEAELDSILARRLAGETLSEHEVAQFKTAVLVFLGAEYARRGWVQQYHIGALRNNNLRQFKLLGPDVGFDSINDRPMAEELSKLLSKQNEENLLPKTILYCLNPRDNEVLGTMIGNFQGEGMPGKMQFGSGWWFNDQKDGMERQMTQLAQLGLLSRFVGMLTDSRSFLSYTRHEYFRRILCQMIGRWVEAGEAPADINLLGEMVKNICFNNARDYFAIELN | soluble
MKRSSTVLAALLALLLVATNDAARHRKYRQTYQDIDSDDDDTSDVQITVFPSEKEVRDGRDVSFECRARTSDNSVYPTVRWARVGGPLPSSAHDSGGRLTINPVQLSDAGTYICVSDYNGNTVEARATLSVVSYGPQEVSNGLRQAGQCMADEKACGNNECVKNDYVCDGEPDCRDRSDEANCPAISRTCEPNEFKCNNNKCVQKMWLCDGDDDCGDNSDELNCNAKPSSSDCKPTEFQCHDRRQCVPSSFHCDGTNDCHDGSDEVGCVQPTVVDPPQTNLQVPRGTTFSLTCKAVAVPEPYINWRLNWGPVCEPPRCLQTSEGGYGTLTIHDAQPVDQGAYTCEAINVKGRVLATPDCIVRVVDDPRPQPPQPPTAPPQRASCDTRGAVTPYPNNYGTCECKSQVTGPNCDQCKPGAFHLSEKSPEGCLKCFCFGVSNDCRSSGHYRTKDRLMFAGDAEGVTISDIEERTIDRNTPFSFFKTGYLTFDGTTDGVAKYWRLPQRFLGDKVTAYGGKMEFEIEFSGSGHHSSEPMVVLKGNQNILVHRVRNQEHVLRSDSPVRITVETYETNYEQLNGAAATREDLLMVLADLDAFLIRATHVAHQTSTSLGDVSWEIAVDRYTPDGLALEVEQCVCPPGYLGTSCEDCAPGYERSGYGPYLGTCVPIQPRHQQCGPGAVAPTAPAQGQCQCKASVIGPNCDRCAPNSFGLAPTNPQGCIPCFCSGVTQQCSASSYRRTSVSIDYARGDRDQLELTTSDSRQPYSPQTRAELSGQAIEFRSFEEARGQTLYWKLPEKFLGDKVTSYGGTLEYTFKFSGNGNSDQSADVILRGNDIALQYKHREPFYADRENKVQIKIIETSWQRVDGQQATREHLLMTLADLDTLLIKSTYNDDCTDSQLLSANLEFAEPYGQGLTAAEVEQCICPPGYVGTSCEDCAPGYSRTGGGLYLGLCEKCECNGHASQCDKEYGYCLDCQHNTEGDQCERCKPGFVGDARRGTPNDCQPEATRAPCHCNNHSPRGCDSFGRCLLCEHNTEGTHCERCKKGYYGDATKGSPYDCTPCPCPGASDCYLDNEGQVACRICPAGLQGRLCNECAPGYTRSNKPAGRVCEPIGQVTNEDITFVQKPHEGDFARNSPSQNSSGQRRHRRRRIRVRSRFYHH | not soluble
MSLTKNKFDNRADKLGESWDLLNKEGRKIGLKHRGEPFKPGEWHSLVNASIFNYQHEILMQQRSFNKIGRPGEWDFETGGSVLASEDSLTAIKREVKEEVGLELNFSEENFVETFRNWPVFDNWYVIKADLSIKDIRIQKSELEQAKFMPFDQAIKYLSSNYLPYLLKAYKKLFGGENEGHHHHHH | not soluble
MCLEPIIAPISSELLEQELTADRFLRMTNKAGNEIYVFTAEEAPHCMKEVGRLREEAFRHYGGGTGKAIDIDEFDTMPGSYKQLIVWDPQNKAILGGYRFIYGRDVAFDTDGKPLLATAEMFRFSDAFLHDYLPYTVELGRSFVSLQYQSTRMGTKAIFVLDN | not soluble
AMRQCAIYGKGGIGKSTTTQNLVAALAEMGKKVMIVGCDPKADSTRLILHSKAQNTIMEMAAEAGTVEDLELEDVLKAGYGGVKCVESGGPEPGVGCAGRGVITAINFLEEEGAYEDDLDFVFYDVLGDVVCGGFAMPIRENKAQEIYIVCSGEMMAMYAANNISKGIVKYANSGSVRLGGLICNSRNTDREDELIIALANKLGTQMIHFVPRDNVVQRAEIRRMTVIEYDPKAKQADEYRALARKVVDNKLLVIPNPITMDELEELLMEFGIMEVEDESIVGKTAEEV | soluble
MGSDKIHHHHHHMKHIEDNAGSERKPLAGAAKSVPAVAADKPYHRKNLREDLLRSALELTVERDGPAFSLRELAMREKVSHTAVYRHFSDKASLFAELSSEGFRQLALYQNRTIEAPDLPPLARLEQMGATYVRFAMENVGFFRVMFDVNLAGEWEEARKGERTAFGNLVGLVRQCQSEGDIIDADPRAIATYLVLSPHGLAHFNNIGHLTHLLQTSMTLDQLATQVFRLTLAPFLTKPYSEQDVRALVNSIF | not soluble
MGSDKIHHHHHHMIGYGLPMPNQAHFSASFARPSTPAAKCMHHIRLGQQLIRNELVEATGLSQPTVTRAVTALMQAGLVRERPDLTLSSGPGRPNIPLELAPSPWIHAGVAIGTKSSYVALFDTKGRTLRDAMLEISAADLDPDTFIEHLIAGVNRLTTGLDLPLVGIGVATSGKVTNAGVVTASNLGWDGVDIAGRLNYQFSVPATVASAIPAIAASELQASPLPHPEQPTPITLTFYADDSVGAAYSNDLGVHVIGPLATTRGSGLDTLGMAAEDALSTQGFLSRVSDQGIFANSLGELVTIAKDNETAREFLNDRATLLAHTAAEAAETVKPSTLVLSGSAFSEDPQGRSVFASQLKKEYDADIELRLIPTHRENVRAAARAVALDRLLNEPLTLVP | not soluble
MSKEGDILKPEEETMEFPEGDKVKVILSKEDFEASLKEAGERLVAVDFSATWCGPCRTIRPFFHALSVKHEDVVFLEVDADNCEEVVRECAIMCVPTFQFYKKEEKVDELCGALKEKLEAVIAELK | soluble
MAGDPMGSKNESTASKASGTASEKKKIEYLDKTYEVTVPTDKIAITGSVESMEDAKLLDVHPQGAISFSGKFPDMFKDITDKAEPTGEKMEPNIEKILEMKPDVILASTKFPEKTLQKISTAGTTIPVSHISSNWKENMMLLAQLTGKEKKAKKIIADYEQDLKEIKTKINDKAKDSKALVIRIRQGNIYIYPEQVYFNSTLYGDLGLKAPNEVKAAKAQELSSLEKLSEMNPDHIFVQFSDDENADKPDALKDLEKNPIWKSLKAVKEDHVYVNSVDPLAQGGTAWSKVRFLKAAAEKLTQNLEHHHHHH | soluble
KTYGPLKNLPHLEKEQLSQSLWRIADELGPIFRFDFPGVSSVFVSGHNLVAEVCDEKRFDKNLGKGLQKVREFGGDGLFTSWTHEPNWQKAHRILLPSFSQKAMKGYHSMMLDIATQLIQKWSRLNPNEEIDVADDMTRLTLDTIGLCGFNYRFNSFYRDSQHPFITSMLRALKEAMNQSKRLGLQDKMMVKTKLQFQKDIEVMNSLVDRMIAERKANPDENIKDLLSLMLYAKDPVTGETLDDENIRYQIITFLIAGHETTSGLLSFAIYCLLTHPEKLKKAQEEADRVLTDDTPEYKQIQQLKYIRMVLNETLRLYPTAPAFSLYAKEDTVLGGEYPISKGQPVTVLIPKLHRDQNAWGPDAEDFRPERFEDPSSIPHHAYKPFGNGQRACIGMQFALQEATMVLGLVLKHFELINHTGYELKIKEALTIKPDDFKITVKPRKTAAINVQRKEQADIKAETKPKETKPKHGTPLLVLFGSNLGTAEGIAGELAAQGRQMGFTAETAPLDDYIGKLPEEGAVVIVTASYNGAPPDNAAGFVEWLKELEEGQLKGVSYAVFGCGNRSWASTYQRIPRLIDDMMKAKGASRLTAIGEGDAADDFESHRESWENRFWKETMDAFDINEIAQKEDRPSLSITFLSEATETPVAKAYGAFEGIVLENRELQTAASTRSTRHIELEIPAGKTYKEGDHIGILPKNSRELVQRVLSRFGLQSNHVIKVSGSAHMAHLPMDRPIKVVDLLSSYVELQEPASRLQLRELASYTVCPPHQKELEQLVSDDGIYKEQVLAKRLTMLDFLEDYPACEMPFERFLALLPSLKPRYYSISSSPKVHANIVSMTVGVVKASAWSGRGEYRGVASNYLAELNTGDAAACFIRTPQSGFQMPNDPETPMIMVGPGTGIAPFRGFIQARSVLKKEGSTLGEALLYFGCRRPDHDDLYREELDQAEQDGLVTIRRCYSRVENEPKGYVQHLLKQDTQKLMTLIEKGAHIYVCGDGSQMAPDVERTLRLAYEAEKAASQEESAVWLQKLQDQRRYVKDVW | not soluble
SEKRFKVYVYEEGEPPLVHDGPCKSVYAVEGRFITEMEKRRTKFRTYDPNQAYVYFLPFSVTWLVRYLYEGNSDAKPLKTFVSDYIRLVSTNHPFWNRTNGADHFMLTCHDWGPLTSQANRDLFNTSIRVMCNANSSEGFNPTKDVTLPEIKLYGGEVDHKLRLSKTLSASPRPYLGFFAGGVHGPVRPILLKHWKQRDLDMPVYEYLPKHLNYYDFMRSSKFCFCPSGYEVASPRVIEAIYSECIPVILSVNFVLPFTDVLRWETFSVLVDVSEIPRLKEILMSISNEKYEWLKSNLRYVRRHFELNDPPQRFDAFHLTLHSIWLRRLNLKLT | soluble
MVRVYIGRFPNRASDRDAEHFFCDYGKLPDAIMKNVFGVGCKDFQDQSDADDIICDEQTRILLVEKLKNAKEYPTINHD | not soluble
MGSCMKWDYGEMEDFSVSASGLFITNEGNFQYSNATLSYYDPATCEVENEVFYRANGFKLGDVAQSMVIRDGIGWIVVNNSHVIFAIDINTFKEVGRITGFTSPRYIHFLSDEKAYVTQIWDYRIFIINPKTYEITGYIECPDMDMESGSTEQMVQYGKYVYVNCWSYQNRILKIDTETDKVVDELTIGIQPTSLVMDKYNKMWTITDGGYEGSPYGYEAPSLYRIDAETFTVEKQFKFKLGDWPSEVQLNGTRDTLYWINNDIWRMPVEADRVPVRPFLEFRDTKYYGLTVNPNNGEVYVADAIDYQQQGIVYRYSPQGKLIDEFYVGIIPGAFCWKLEHHHHHH | not soluble
MHSPTPFALAIFLGILYHIPTFSNQRSIMNNLELEQLINQKLSSDKINDYAPNGLQVEGKTEIKKIITGVTASQALINYAISQNADAILVHHGYFWKSETPCIRGMKGKRIKALLVNDINLYGYHLPLDVHPELGNNAQLAKLLDIENLQPLEKGSVSIPVWGELKEPMTGKDFAEKIEKVLNRKPLICIENGPHLIRKIGICTGGGQGYIDLAAEQGCDAFITGEVSEQTIHSAREQGLYFFSAGHHATERYGIKALGEWLAKEYGFDVEFKDIDNPALEHHHHHH | soluble
MGSDKIHHHHHHMKRLSPEVFKVPIDRIRNGYYSDIYFINYVKVLKRDSRHPRVYYQFFPRKDAVICGIDEALAILKFCTGYYKDEEKARELFEEILKLDKEMQAASVEMDVQKILELTQKKWDLRLKLNDLWVDKWDEIEVHALYDGEEAKEGEPIMTIEGDPTYFGYLETVLLGVIARATSTATAVKKVVKAARGKPVLFFSARFDHYWVQATDGYAALKAGAFGVSTDANADYWGVKSMGTMPHALIACYDGKTEDAAIAFDRHMEEDVNRIVLVDWDNDVIGTTFRVIEKFYEYVMKKPFKLGVTDPSPIIGPGKNKIWGVRFDTSGNLRDKSVVPKDESSFGVCPELVWRARQEFDKVGLRDLKIVVSGGFDEKKIDLFERLGVPADAYGVGSRLLREKVDITADIVEVNGRHCAKVGRYKIENPRLKKVGKRYWEEE | not soluble
